This note sets out measurements from the DeepSol protein solubility set.

The data set can be described thus: soluble on expression in E. coli; label from the status in PepcDB or PDB records.
Consider “MGSDKIHHHHHHMSQLLIKNAYLITMNADREVYENGSILIENNIIKEVGKFDINIVDKDAEIYDAKGKILMPGLVNTHVHLSQQLGRGLADDVVLLTWLRERIWPYESSFNYEDSLISSTACCVELIKSGVTTFLESGGQYVDAMVEAVDKTGLRACLAKSVMDTGDGLPEAWQKTTDEEINTQLDLFHKFNNTSNERIKIWFALRTIFNTTEELLVRTKELADKYNTGIHMHIAEIADEISFVKQNNGVGTVEYLDKLGVLGPNLLAAHTVWLTHKEIDLFRLHDVKVSHDPGSAMKVVLGFASIPEMLEKGIPVSIGTDGAPSNNRMDLMRDMYLTSLIHKGRTLNPTVVPAEEVLEMATINGAKCALLEKEIGSLEVGKKADMIILNPDTIHCLPMHNPIGNIVYSMTSENVDSTICDGKWLMKERKVLVVDESELLNKVKKQASKIKDKAEVKIPSKFKIIK”, for which the “soluble on expression in E. coli” value is listed as “not soluble”. As for “MGSDKIHHHHHHMADFQGETEMTAEVFDPRALRDAFGAFATGVTVVTASDAAGKPIGFTANSFTSVSLDPPLLLVCLAKSSRNYESMTSAGRFAINVLSETQKDVSNTFARPVEDRFAAVDWRLGRDGCPIFSDVAAWFECSMQDIIEAGDHVIIIGRVTAFENSGLNGLGYARGGYFTPRLAGKAVSAAVEGEIRLGAVLEQQGAVFLAGNETLSLPNCTVEGGDPARTLAAYLEQLTGLNVTIGFLYSVYEDKSDGRQNIVYHALASDGAPRQGRFLRPAELAAAKFSSSATADIINRFVLESSIGNFGIYFGDETGGTVHPIANKDAHS”, the “soluble on expression in E. coli” value was “not soluble”. The entry for “MGSDKIHHHHHHMVRLRPYRSCDAKYIVTWISSEEEFVKWCANLITYPFTEESMNKIQESFENNEKGWLFTAIDKKGTPIGFMSMSKADYENDSVHLGFIIVDSSKRSSGFGKQMINQAIKYAFEILNVSRVTLKVFDNNSTAHYCYQNVGFVDEKYMEKEFPYKDEMWGCYCMAIQK” is “not soluble”; for “MGSDKIHHHHHHMIGVAEVVLDVRDLRIYYRTLYGYVKAVDGVSFDIKRGEILGIAGESGCGKSTLGNGLILLKPPMKYMGGEAILDGKNIMALSPKELRKVRYEKISIIPQYAMDAMNPTKKIKQIIDDLLHEHGESFERKKDVIEERLEIVNLGKKVLNMYPIELSGGMKQRMVMVISTLMNPDVLIADEITSALDVSSQRSVIQMLYEMREKEIMGSLAFITHDLSVLYQIADKVMVLYAGRVAEISPMEDIIQEPLHPYTKMLLSSLPKIGVRYSQTKLKGIPGYPPSLLNIGPGCRFRDRCPYAFEKCEQDPPVFDVDGRKVSCWLFERGDAN” it is “not soluble”; for “MHHHHHHSSGVDLGTENLYFQSMRLLRASGRTPEAVQKLLEQGLRHSQDLAFLSMLNDIAAVPATAMPFRGYAVLGGERGGPEVQQVPAGERPLWFICSGMGTQWRGMGLSLMRLDRFRDSILRSDEAVKPFGLKVSQLLLSTDESTFDDIVHSFVSLTAIQIGLIDLLSCMGLRPDGIVGHSLGEVACGYADGCLSQEEAVLAAYWRGQCIKEAHLPPGAMAAVGLSWEECKQRCPPGVVPACHNSKDTVTISGPQAPVFEFVEQLRKEGVFAKEVRTGGMAFHSYFMEAIAPPLLQELKKVIREPKPRSARWLSTSIPEAQWHSSLARTSSAEYNVNNLVSPVLFQEALWHVPEHAVVLEIAPHALLQAVLKRGLKPSCTIIPLMKKDHRDNLEFFLAGIGRLHLSGIDANPNALFPPVEFPAPRGTPLIS” it is “soluble”. The entry for “GMTQPHQIILLAHGSSDARWCETFEKLAEPTVESIENAAIAYMELAEPSLDTIVNRAKGQGVEQFTVVPLFLAAGRHLRKDVPAMIERLEAEHGVTIRLAEPIGKNPRLGLAIRDVVKEELERSEH” is “soluble”; for “GPGSMIGAPWPPEAVFGNTVDRVASPAPVPERKISIADQLHLPLSRFVEKMSWGEKRRVQILHGMLYPATVYLLDECSTDIDVAERRTVLELVRQECEAKDGCCVYATHIFDGIEGWATHLLLMEGGRVVDFKAVEKLTLPLEDYALQFMSKRAHAARGVDGVAAASLSHGSSAAISTTS” it is “soluble”; for “QFMKPFISEKSSKSLEIPLGFNEYFPAPFPITVDLLDYSGRSWTVRMKKRGEKVFLTVGWENFVKDNNLEDGKYLQFIYDRDRTFYVIIYGHNMCS” it is “not soluble”. With “MLKRKVITEFRRHNRSSRWNADAHLRAHERSANVEDDAIMRVDTCQLAANNPIEDFYSAAKCLSSRAFLFGVFDGHGGQQCSRHISTNLYPYLCASVLKKHEVVDYPSDQRLEWLFSSSDGHLPNAFKGRETQHIAEYHKQFKKNANAYTGTVREALKLAFETCDKDLAENALPSAKGVIDRHAAMVAASGSCCTLAHIRSRHLHVANLGDAAAVLGVVNPNGSVTARQLSRAHCVDNADEVHRIRIAHPASESQTVLRGGRLLGELFPLRAFGDVRYKWPLDLQKVVLEPLGHPPPQHLFTPPYLSTSPEVFYHKLTPNDRFLVLATDGLWEWLDPDTVVRLVHDHTLGTITQQPYVPKSGTSLRQVREQLKDRARGEQKTKKPIDENCATHIIRHALGGVSGGATKQYERLIDILQVPPGRARNYRDDITVIVIHFNETFLDGHEDDEE”, the “soluble on expression in E. coli” value is listed as “not soluble”. With “MCMRRTLYRLMIELTNGRFTSYILRKFAQSRLSSIIIPSYVKVFQINQDEMEKGLKEYRTLHELFTRKLKEGKRSIDTDASSIVSPVDGVFADYGPIEDAKTFDIKGKRYSIVDMLGNEERAQRYAGGTYMVIYLSPSHYHRIHSPLSGSVTERFVLGRKSYPVNAAGMEYGKEPLSKNYRSVTEVNSDGEHMALVKVGAMFVNSIELLHERDTVQKGEEMAYFTFGSTVVLLFEKDMIEVVQELKSGQELRLGEKIATRLAHKMAGDPLEHHHHHH”, the “soluble on expression in E. coli” value was “soluble”. Consider “MKIMEINVEHILDCLDQYGKGELTEEQLVKALTYDEKMFLIMHQGLLGENSDSEDDFDVQDWLEEEESFFMVVEVNENLCRQAESVLEEIGVEMPDAIEGFLNQLVEKKQFPVVINS”, for which the “soluble on expression in E. coli” value is “not soluble”. The entry for “MSAVFGAKYTLRFGHVLAPGEPYHQAFLKWAKAVEEKTNGDVRIEVFPSSQLGVEEDIIEQIRMGAPVGWNTDSARLGMYVKDIGVMNLAYFIDFMGAKTPEEAIEVLKKIKQSPTMQKWLKELEQRFGIKVLSFYWVQGYRHFVTNKPIRKPEDLNGLRIRTPGAPAWQESIRSLGAIPVAVNFGEIYTAVQTRAVDGAELTYANVYNGGLYEVLKYMSETGHFLLINFEIVSADWFNSLPKEYQKIIEEEMDKAGIEVSLKIMKELEEEYKQKCIEKGMAVIPASEIDKEAFMEKAKQAYKNLGLENALNQLIKEVKGEHHHHHH” is “soluble”; for “MSLDIKVQKTEDLIPYEKNPRHNEGAITAVAKSIEKFGFKVPIVVDASNVIVNGHTRLKAAKYLGLKEVPTIIADDLTPEQIKAFRLADNKVGEIATWDEELLNAELDELADLDLDFDMTEFGFDLPDIEGEEVEVIEDEFEEELPAEPISKLGDIYQLGRHRLMCGDSTNSLEVEKLMGNKKADLLITDPPYNVAYEGKGKEALTIKNDSKETNEFHSFLYEAFSAAINNMKLGSSFYVWYASSEVVNFHTALEEAGFLVKQELIWNKNSMVLSRQDYHWKHEPCLYGWASGGSHSWYSDRKQTTILNFDRPTVNKEHPTMKPVALFDYQIKNSSKQGDCILDLFGGSGTTLIACEQNEREAYLMELDPRYVDVIIARWEAFTGEVAVKISGNDTAVVDGEGHHHHHH” it is “soluble”. The entry for “MGSDKIHHHHHHMKTDFTIREAQQTDTIALKELFQNTVLAVNSKDYSQAEVEDWASCGDDLSNIEEMIKTHYFIVAVNQQSQIVGFSSITSQGYLHSMFVHKDFQGKGIATMLLEEIERYAITAGIMRITSEVSLTARPFFEKKGYIVKEEQKRKANQLSLTNFWMAREMAKIKPYNGRIPACGVFCGGCPIYTREKRACRGAELNHSRCEKCKTFHLCCFGKKITHCFQCSNFPCTRFKGFAKRWQKHGQDFIENQKLLSEIGEVAFLEYYNKKVTD” is “not soluble”. The entry for “MGSDKIHHHHHHMSSDSVIRVSNLGKRYEIYAQPKDRLKQMVMPRLKRMIGMHPPEYFREFWALRGVSFEVRRGETVAIIGQNGSGKSTLLQLVCGTLFPTNGDIQVKGRIAALLELGAGFNPEFTGEENIYLSGLLYGISEDELRNRFDSIVEFAEIGEFISQPVKTYSSGMYVRLAFAIAAHVDADMLVVDEALSVGDVRFTQKCMRFLREFQKTGTLLFVSHDVGAVTSLCSRAIWLNQGVLKMDGPAKETVEAYLAEQHALDRGQRGDVVQLAKAREKVAKQPAKAANPPVVDVVDQRWEALRANGSGTRIEVFEFMPDSSESEFGARGATIERVALRNEAGEDLPIVQGGELVDLYIESRSHQALAGLIFGFYLKDRLGQRLFGDNTFMTYADREVRSQAGDTHIARFRFRMPIMPVGAYSFDVAIATGNQHDHTQQHWIHDALSMRAVDSTMRHGLVGIPMLEIAISKEG” is “not soluble”; for “MIYGILSKNLGMPTPTFLVCPDVVKFENVGQIAVVNGMVYLGGSVGIDKSGTLHKGLEEQTRQTFDNIRKCLEYANSGLDYIVSLNIFLSTSLSDSEEARFNELYREVFCVPATRPCRCCVRAQLQEGLLVEVVNVVAAQK” it is “soluble”; for “MMDFSHIVSEDKIKRAIKDGDFQNLPGMGKPLPKMTRHTCRNRCAWAIVFLEHHHHHH” it is “not soluble”.

As to “RKQAEEKLVASERFLRMLTNQLPGMVGYWDRDLRCRFANDAYKEWFGRSPEQIIGLTVQELMGEELFRLSEPYIRGALQGEPQNFERELVKPNGETGYTWAQYIPDMVNDKAIGFFVLISDVT”, the “soluble on expression in E. coli” value is “not soluble”. In the case of “MTTTPYDIIGKEALYDMIDYFYTLVEKDERLNHLFPGDFAETSRKQKQFLTQFLGGPNIYTEEHGHPMLRKRHMDFTITEFERDAWLENMQTAINRAAFPQGVGDYLFERLRLTANHMVNS”, the “soluble on expression in E. coli” value was “not soluble”. Regarding “MKKLAAIISATLLFASSAAVAEVYVGGKVGKSWLDDACLAGQSCEDDDQVVGAFLGYQANKWLSLEAGYDYLGKFTAAGLNDEKVQAVTLAPKLSIPLTEGIALYGKVGGAYVDYGSKDDYSYLGAAGLEFNTNHNVTMRLEYQNLTDINNDIVRARAETATLGIAYKFGGSEEPAPVVEQRPAEPAPVAAPVEKVAVTKTFTFQHLDSSTFATASAELKPATVQKLDKIVGYLNQYPQAKVEVVGHTDSTGSEAYNQKLSERRAQAVAKALEAQGIDASRISAKGLGESSPIASNATAEGREKNRRVELVIPEFQYQVTE”, the “soluble on expression in E. coli” value is “not soluble”. With “MTWPARRVLYAIWQDPWMTVSRATYISRMLALVNWATWPDDADTSDTPAACVDGDCSRPNAPGERYPTFRWSDALVRELDAVLLSTEPYRFTEDHADALERQIGKPVLLVDGEMLSWYGSRAVAGARYLRSLAQGFLEHHHHHH”, the “soluble on expression in E. coli” value was “not soluble”. As to “QAGFNDLFTINNTPAKTATEIYLENFPEQRNPLKSTGVNIVFKAPEGHTLAEPENKAAMDSVVQAIQDNLEGLTNTQRFGNPVELNPKLQQGVIDLMTQRGVPEENARADAANLSLITPDETIGYTTFDIDVPMPADVSDAQRQAITDAMNLGREKGLTVEAGGAGFGDPIVIEETSE”, the “soluble on expression in E. coli” value is on record as “not soluble”.

Turning to “MQARQPTVAPFDTAKLDRLMEEAGIDVIAATSKHNTQYLMGGYKFIFFAAMDAIGHSRYLPMVIYEKGAPDHSAYVGNRMEGAEHQNNPFWTPAVHTATWGTQDAAGLAVEHLKKIGKASGRIGIEPAFLPSDARDLLASRLDGARFVDATHVLERLRAVKTADELAKLRRASELITDSMLATIAAARAGSTKLEIIEQLRREETNRGLHFEYCLLTLGASHNRAGSPQAWAEGEILSIDSGGNYHGYIGDLCRMGVLGEPDAELEDLLAEVERIQQAAFAKVRAGVLGSEMIVAAEAELKASPSAAFTDFFCHGMGLITHEAPFLMTNHPVAYEGIDADKPLEAGNVISVETTMLHPKRGFIKLEDTLAITDKGYEMFGDRGRGWNRGGVLEHHHHHH”, the “soluble on expression in E. coli” value is on record as “not soluble”.
